# Source: article PMC5716075, “Conserved asymmetry underpins homodimerization of Dicer-associated double-stranded RNA-binding proteins” (Nucleic Acids Research, 2017)
# B1: PACT-Ext-D3 (PACT residues 208-313, dsRBD 3 with the conserved N-terminal extension), wild type [human] / itself (parent)
# chain: GHSLGCTWHSLRNSPGEKINLLKRSLLSIPNTDYIQLLSEIAKEQGFNITYLDIDELSANGQYQCLAELSTSPITVCHGSGISCGNAQSDAAHNALQYLKIIAERK
# B2: PACT-D3 (PACT residues 239-313, core dsRBD 3), wild type [human] / itself (parent)
# chain: TDYIQLLSEIAKEQGFNITYLDIDELSANGQYQCLAELSTSPITVCHGSGISCGNAQSDAAHNALQYLKIIAERK
# B3: Loqs-D3 (Loquacious residues 392-463, dsRBD 3), wild type [Drosophila] / itself (parent)
# chain: IDYIKLLGEIATENQFEVTYVDIEEKTFSGQFQCLVQLSTLPVGVCHGSGPTAADAQRHAAQNALEYLKIMT
# Variants of: B1
# Experiment: SEC-MALLS
# Conditions: with itself
row,screen value [kDa],Variant
1,12.3,chain 1 L66R

# Variants of: B2
# Experiment: SEC-MALLS
# Conditions: with itself
row,screen value [kDa],Variant
1,8.8,chain 1 L35R

# Variants of: B3
# Experiment: SEC-MALLS
# Conditions: with itself
row,screen value [kDa],Variant
1,8,chain 1 L35R
